± gives the uncertainty stated by the source.
Experiment: protein stability index of a GFP-peptide fusion (yeast GPS) (PSI 1-4); higher = more stable; sorted into four equal gates, so the index is relative within each strain
In short: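 Each library plasmid carries Cherry plus GFP with a tiled 17-residue yeast protein peptide fused downstream, and the pooled library was carried in yeast. Mid-log cultures in leucine-free medium were sorted into four equal gates by GFP/Cherry ratio. Reads from Illumina sequencing of PCR-amplified plasmids from each gate were assigned to strains by barcodes. Per peptide, the protein stability index was computed as the summed products of gate read frequency and gate number.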

Row | Sequence | protein stability index (doa10∆) | protein stability index (pdr5∆) | protein stability index (san1∆) | protein stability index (ubr1∆)
1 | QEETVVEQTAEVTIEDA [RPS12] | 3.36 ± 0.12 | 3.38 ± 0.13 | 3.19 ± 0.048 | 3.33 ± 0.056
2 | QEIFDANVQRLKEYQSK [RPL13A] | 3.06 ± 0.097 | 3.4 ± 0.15 | 2.93 ± 0.15 | 3.27 ± 0.093
3 | QEKNFQTGIFVYQNNIT [RPB5] | 2.49 ± 0.064 | 1.52 ± 0.064 | 2.88 ± 0.09 | 2.38 ± 0.082
4 | QELKLTCVAKKGIAKEH [RPB3] | 3.09 ± 0.23 | 3.18 ± 0.13 | 2.92 ± 0.1 | 2.96 ± 0.095
5 | QEMIDILETIFRGARKN [DIB1] | 2.83 ± 0.14 | – | 2.77 ± 0.17 | –
6 | QENKNIDDENITKLNKE [SRB4] | 3.44 ± 0.056 | 3.23 ± 0.068 | 3.22 ± 0.052 | 3.46 ± 0.057
7 | QEQGSFQHILRLLNTNV [RPS18A] | 2.97 ± 0.045 | 3.06 ± 0.045 | 2.91 ± 0.037 | 3.03 ± 0.035
8 | QEQITLYDHWDKYHEQW [SSN8] | 3.32 ± 0.19 | 3.12 ± 0.12 | 2.84 ± 0.071 | 2.76 ± 0.046
9 | QESFINTMSAWVNMLLI [FAS2] | 2.2 ± 0.077 | 2.12 ± 0.085 | 2.08 ± 0.1 | 2.37 ± 0.066
10 | QESSSTLSTHSTTTSVN [SIN4] | 3.04 ± 0.04 | 3.12 ± 0.037 | 3.12 ± 0.028 | 3.132 ± 0.029
11 | QETASPLSQDELISLRK [YIL149C/MLP2] | 2.42 ± 0.06 | 2.22 ± 0.074 | 1.89 ± 0.11 | 2.13 ± 0.061
12 | QETEGTNRHTLALETVL [SIR3] | 2.72 ± 0.063 | 2.57 ± 0.054 | 2.53 ± 0.06 | 2.83 ± 0.041
13 | QFELLSRRWRQRKNIQS [BRR2] | 1.44 ± 0.08 | 1.92 ± 0.056 | 1.55 ± 0.088 | 1.65 ± 0.044
14 | QFEVSDDEKNDKQARKQ [SNF2] | 3.38 ± 0.083 | 3.4 ± 0.12 | 3.06 ± 0.069 | 3.29 ± 0.077
15 | QFEWHQNSLLTNTHPNF [SNF2] | 2.87 ± 0.063 | 2.88 ± 0.08 | 3.09 ± 0.066 | 2.99 ± 0.047
16 | QFINLAGYKKLGLKFDD [QCR7] | 2.43 ± 0.2 | 3.61 ± 0.14 | – | –
17 | QFNAQGVRDINCVNDVL [POP1] | 2.92 ± 0.17 | 2.92 ± 0.17 | 2.91 ± 0.11 | –
18 | QFTLYDRELNEVINQME [SMC3] | 3.01 ± 0.095 | 3.09 ± 0.091 | 2.94 ± 0.13 | 3.08 ± 0.046
19 | QFTSSLFKALKVILNER [RGR1] | 2.03 ± 0.11 | 2.4 ± 0.069 | 1.83 ± 0.1 | 2.42 ± 0.077
20 | QGGNNELGTAVGKLFRV [RPL30] | 2.5 ± 0.12 | 2.83 ± 0.093 | 2.45 ± 0.06 | 2.84 ± 0.076
21 | QGGVLPNIHQNLLPKKS [HTA1] | 2.67 ± 0.082 | 2.75 ± 0.074 | 2.9 ± 0.076 | 2.71 ± 0.057
22 | QGPVKNTQLHGPSATDP [RGR1] | 2.93 ± 0.062 | 3.06 ± 0.047 | 2.97 ± 0.053 | 3.02 ± 0.035
23 | QGSVTVGLRSNTHAVLV [PRE5] | 1.24 ± 0.033 | 1.43 ± 0.039 | 1.75 ± 0.07 | 1.29 ± 0.037
24 | QHEQGTFEKHDRVEDIC [RRI2] | 2.89 ± 0.091 | – | – | 2.97 ± 0.13
25 | QIEGPFLIIVPKSTLDN [ISW2] | 2.88 ± 0.13 | 2.12 ± 0.1 | 2.17 ± 0.088 | 1.75 ± 0.097
26 | QIELSCNERVPLSVATE [SRP72] | 2.11 ± 0.04 | 2.21 ± 0.053 | 2.1 ± 0.087 | 2.12 ± 0.04
27 | QILQGICKNCSAILLSE [RPO31] | 2.17 ± 0.071 | 2.23 ± 0.061 | 2.26 ± 0.13 | 2.43 ± 0.069

Row | Sequence | protein stability index (doa10∆) | protein stability index (pdr5∆) | protein stability index (san1∆) | protein stability index (ubr1∆)
28 | QINIMPSLKAHFTEIKL [SIR3] | 2.18 ± 0.056 | 2.1 ± 0.054 | 2.29 ± 0.057 | 2.4 ± 0.045
29 | QISIIDIWSISKKRQAE [YML031W/NDC1] | 2.32 ± 0.056 | 2.63 ± 0.052 | 2.54 ± 0.053 | 2.79 ± 0.039
30 | QIYGFEGLNQRNQVQTE [YGR119C/NUP57] | 3.16 ± 0.17 | 2.94 ± 0.22 | 3.08 ± 0.13 | 3.39 ± 0.18
31 | QKDQDGRIPLHWSVSFQ [NAS6] | 3.29 ± 0.093 | 3.33 ± 0.079 | 3 ± 0.13 | 3.06 ± 0.053
32 | QKETQKVTKIWSKESNY [PRP28] | 1.63 ± 0.04 | 2.1 ± 0.041 | 2.3 ± 0.047 | 1.95 ± 0.027
33 | QKMAKAKKQNRPLPQWI [RPL39] | 2.97 ± 0.13 | 3.07 ± 0.057 | 3 ± 0.081 | 3.14 ± 0.059
34 | QKQLPQKTRVKLLFDHD [ESC2] | 2.86 ± 0.057 | 2.93 ± 0.05 | 3.03 ± 0.039 | 3 ± 0.039
35 | QKSPKIRDPLTQTGLLQ [RPC82] | 1.81 ± 0.069 | 1.74 ± 0.041 | 2.02 ± 0.12 | 1.91 ± 0.046
36 | QKVNAVDSTFQKVSENF [SMC3] | 3.29 ± 0.091 | 3.28 ± 0.079 | 3.44 ± 0.06 | 3.21 ± 0.04
37 | QKVQGESHIDSRNNTLN [SIR4] | 3.02 ± 0.057 | 3.1 ± 0.05 | 3.08 ± 0.057 | 3.01 ± 0.043
38 | QKYNQIQKQIETIQADL [SMC2] | 2.68 ± 0.047 | 2.57 ± 0.042 | 2.6 ± 0.047 | 2.45 ± 0.031
39 | QLAVANEIIRSLSDEVM [SIR4] | 3.16 ± 0.077 | 3 ± 0.081 | 2.59 ± 0.12 | 3.21 ± 0.087
40 | QLDFTEFDEQYGTRPLV [SNF2] | 3.26 ± 0.048 | 3.02 ± 0.047 | 3.21 ± 0.039 | 2.81 ± 0.032
41 | QLKDMQTIEMITQIVEK [SRB8] | 2.87 ± 0.069 | 3.19 ± 0.075 | 2.94 ± 0.059 | 2.85 ± 0.056
42 | QLLIIEKEWENAIRIGE [SRP72] | 1.44 ± 0.052 | 1.69 ± 0.054 | 2.09 ± 0.12 | 2.21 ± 0.044
43 | QLLQRLNDMNTEISGLK [SMC3] | 3.28 ± 0.081 | 3.38 ± 0.1 | 3.22 ± 0.06 | 3.3 ± 0.058
44 | QLSQDEHSQVEQTCVKL [SRP72] | 3.17 ± 0.16 | 3.24 ± 0.064 | 3.1 ± 0.094 | 3.25 ± 0.084
45 | QLVTREAQIKDWVENEL [FAS2] | 3.44 ± 0.1 | 3.19 ± 0.1 | 3.39 ± 0.065 | 3.11 ± 0.064
46 | QLYHLEQQKEELTDKLS [SMC1] | 2.23 ± 0.16 | 3.11 ± 0.081 | 2.78 ± 0.15 | 3.14 ± 0.11
47 | QMMSKGIGALFTQQELQ [RPC34] | 3.3 ± 0.11 | 3.26 ± 0.12 | 3.12 ± 0.07 | 3.34 ± 0.08
48 | QMSDKHATVVPPEEFSN [SRB7] | 2.98 ± 0.05 | 2.88 ± 0.056 | 2.71 ± 0.059 | 2.86 ± 0.047
49 | QMSLEANVVDITNDWEQ [YJR042W/NUP85] | 2.65 ± 0.077 | 2.77 ± 0.064 | 2.92 ± 0.058 | 2.87 ± 0.058
50 | QMTWRQWLNNALKRSYG [POP8] | 2.9 ± 0.085 | 3.08 ± 0.14 | 3.56 ± 0.079 | 3.2 ± 0.079
51 | QNDELKFQGVLESEAQK [RPC34] | 3.41 ± 0.11 | 3.21 ± 0.11 | 3.23 ± 0.061 | 2.93 ± 0.075
52 | QNIKAPSVKRQKMAELE [PRP8] | 3.29 ± 0.088 | 3.25 ± 0.07 | 3.3 ± 0.074 | 3.29 ± 0.077
53 | QNNKPSFVFGQAAAKPS [YLR335W/NUP2] | 1.77 ± 0.05 | 2.12 ± 0.066 | 2.2 ± 0.1 | 2.45 ± 0.075

Reference: the supplement of paper PMC9732359
